Source: US20240035012A1 (WESTLAKE UNIVERSITY, published 2024)
Numbering of substitutions follows the chain as printed. Values joined by “and” are separate entries in the source; they are usually repeats but may differ in a detail not shown here. Identical values can stand only once.

B1: ACE2 M2-AP15-foldon (receptor)
chain: QSTIEEQAKYFLDKFNHEAEDLFYQSSLASWNYNTNITEENVQNMNNAGDKWSAFLKEQSTYAQMYPLQEIQNLTVKLQLQALQQNGSSVLSEDKSKRLNTILNTMSTIYSTGKVCNPDNPQECLLLEPGLNEIMANSLDYNERLWAWESWRSEVGKQLRPLYEEYVVLKNEMARANHYEDYGDYWRGDYEVNGVDGYDYSRGQLIEDVEHTFEEIKPLYEHLHAYVRAKLMNAYPSYISPIGCLPAHLLGDMWGRFWTNLYSLTVPFGQKPNIDVTDAMVDQAWDAQRIFKEAEKFFVSVGLPNMTQGFWEYSMLTDPGNVQKAVCHPTAWDLGKGDFRILMCTKVTMDDFLTAHHEMGHIQYDMAYAAQPFLLRNGANEGFHEAVGEIMSLSAATPKHLKSIGLLSPDFQEDNETEINFLLKQALTIVGTLPFTYMLEKWRWMVFKGEIPKDQWMKKWWEMKREIVGVVEPVPHDETYCDPASLFHVSNDYSFIRYYTRTLYQFQFQEALCQAAKHEGPLHKCDISNSTEAGQKLFNMLRLGKSEPWTLALENVVGAKNMNVRPLLNYFEPLFTWLKDQNKNSFVGWSTDWSPYADGSAPAPAPAPAPAPAPAPAPAPAPAPAPAPAPGSGYIPEAPRDGQAYVRKDGEWVLLSTFL
B2: ACE2 M4-AP15-foldon (receptor)
chain: B1 chain with K14F, H17I, E18Q
B3: ACE2 M5-AP15-foldon (receptor)
chain: B1 chain with H17A
B4: ACE2 M1-AP15-foldon (receptor)
chain: B1 chain with Y10T, K14F, H17I, E18Q, Y62L, Y313N

Target: SARS-CoV-2 spike protein (SARS-CoV-2-S) (SARS-CoV-2, UniProt P0DTC2 14-1273)
Assay: cell-based or functional assay

Binder	IC50, inhibition of SARS-CoV-2 pseudotyped virus (luciferase), Caco-2 cells
B1	0.071 µg/ml and 0.177 nM
B2	0.071 µg/ml and 0.177 nM
B3	0.052 µg/ml and 0.13 nM
B4	0.202 µg/ml and 0.505 nM
